Among the data in US20240124890A1 are suppression of pKal activity (PFR-AMC fluorogenic kinetic enzymatic assay) values, retold here.

For this assay, the target named is activated human plasma kallikrein (Enzyme Research Laboratories) (human) (UniProt P03952). Kind of assay: cell-based or functional assay.
Sequence of UniProt P03952 (P03952 20-638 limits assumed): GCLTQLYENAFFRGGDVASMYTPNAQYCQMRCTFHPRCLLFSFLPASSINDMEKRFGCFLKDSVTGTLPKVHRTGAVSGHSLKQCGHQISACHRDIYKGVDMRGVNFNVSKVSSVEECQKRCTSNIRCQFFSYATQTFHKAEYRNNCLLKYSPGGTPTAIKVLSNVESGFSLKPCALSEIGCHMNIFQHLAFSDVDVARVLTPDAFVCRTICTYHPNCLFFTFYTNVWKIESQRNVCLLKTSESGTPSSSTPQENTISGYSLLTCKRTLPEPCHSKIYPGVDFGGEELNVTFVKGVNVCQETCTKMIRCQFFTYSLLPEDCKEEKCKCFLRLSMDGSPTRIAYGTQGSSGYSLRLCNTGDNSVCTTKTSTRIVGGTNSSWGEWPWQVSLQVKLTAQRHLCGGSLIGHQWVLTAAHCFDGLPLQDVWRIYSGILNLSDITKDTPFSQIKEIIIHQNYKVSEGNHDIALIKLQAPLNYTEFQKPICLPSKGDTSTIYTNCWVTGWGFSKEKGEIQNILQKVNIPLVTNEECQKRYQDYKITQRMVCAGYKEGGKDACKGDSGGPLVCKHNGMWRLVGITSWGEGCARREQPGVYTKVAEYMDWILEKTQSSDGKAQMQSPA

On to “Therapeutic antibody (GenScript), human anti-pKal antibody (lanadelumab)”, for which the suppression of pKal activity (PFR-AMC fluorogenic kinetic enzymatic assay) turned out to be 0.1 nM.
